Measured values reported in article PMC5499727 (Nucleic Acids Research, 2017).

Target: Mcm2/4/6/7 complex (wild type) (mouse, UniProt P97310 1-904; P49717 1-862; P97311 1-821; Q61881 1-719)
Assay: co-sedimentation

Chain of Mcm2/4/6/7 complex (wild type) (P97310 whole entry, chain 1 of 4): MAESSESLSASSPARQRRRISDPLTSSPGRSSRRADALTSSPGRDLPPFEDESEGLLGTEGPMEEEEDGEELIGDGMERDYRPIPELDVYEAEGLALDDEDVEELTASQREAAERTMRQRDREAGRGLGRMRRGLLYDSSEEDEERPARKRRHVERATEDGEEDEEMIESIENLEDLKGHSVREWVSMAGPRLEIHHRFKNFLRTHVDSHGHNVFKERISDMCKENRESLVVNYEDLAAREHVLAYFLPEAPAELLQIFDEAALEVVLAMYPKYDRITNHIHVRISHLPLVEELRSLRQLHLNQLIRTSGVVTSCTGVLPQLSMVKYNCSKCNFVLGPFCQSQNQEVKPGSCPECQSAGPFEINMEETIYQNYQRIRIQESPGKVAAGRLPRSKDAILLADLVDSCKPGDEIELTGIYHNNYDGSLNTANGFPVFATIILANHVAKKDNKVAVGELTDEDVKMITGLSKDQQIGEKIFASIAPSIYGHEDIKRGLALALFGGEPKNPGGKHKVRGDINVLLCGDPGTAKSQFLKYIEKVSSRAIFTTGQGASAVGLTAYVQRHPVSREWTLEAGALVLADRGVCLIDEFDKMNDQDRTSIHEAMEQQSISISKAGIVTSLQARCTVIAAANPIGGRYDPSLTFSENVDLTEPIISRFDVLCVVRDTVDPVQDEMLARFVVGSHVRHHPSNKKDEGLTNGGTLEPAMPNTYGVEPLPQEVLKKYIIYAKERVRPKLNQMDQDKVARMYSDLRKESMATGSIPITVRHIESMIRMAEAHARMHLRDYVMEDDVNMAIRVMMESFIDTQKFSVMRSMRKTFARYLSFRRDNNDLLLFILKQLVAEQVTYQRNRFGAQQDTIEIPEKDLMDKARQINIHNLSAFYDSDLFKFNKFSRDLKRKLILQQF
Chain of Mcm2/4/6/7 complex (wild type) (P49717 whole entry, chain 2 of 4): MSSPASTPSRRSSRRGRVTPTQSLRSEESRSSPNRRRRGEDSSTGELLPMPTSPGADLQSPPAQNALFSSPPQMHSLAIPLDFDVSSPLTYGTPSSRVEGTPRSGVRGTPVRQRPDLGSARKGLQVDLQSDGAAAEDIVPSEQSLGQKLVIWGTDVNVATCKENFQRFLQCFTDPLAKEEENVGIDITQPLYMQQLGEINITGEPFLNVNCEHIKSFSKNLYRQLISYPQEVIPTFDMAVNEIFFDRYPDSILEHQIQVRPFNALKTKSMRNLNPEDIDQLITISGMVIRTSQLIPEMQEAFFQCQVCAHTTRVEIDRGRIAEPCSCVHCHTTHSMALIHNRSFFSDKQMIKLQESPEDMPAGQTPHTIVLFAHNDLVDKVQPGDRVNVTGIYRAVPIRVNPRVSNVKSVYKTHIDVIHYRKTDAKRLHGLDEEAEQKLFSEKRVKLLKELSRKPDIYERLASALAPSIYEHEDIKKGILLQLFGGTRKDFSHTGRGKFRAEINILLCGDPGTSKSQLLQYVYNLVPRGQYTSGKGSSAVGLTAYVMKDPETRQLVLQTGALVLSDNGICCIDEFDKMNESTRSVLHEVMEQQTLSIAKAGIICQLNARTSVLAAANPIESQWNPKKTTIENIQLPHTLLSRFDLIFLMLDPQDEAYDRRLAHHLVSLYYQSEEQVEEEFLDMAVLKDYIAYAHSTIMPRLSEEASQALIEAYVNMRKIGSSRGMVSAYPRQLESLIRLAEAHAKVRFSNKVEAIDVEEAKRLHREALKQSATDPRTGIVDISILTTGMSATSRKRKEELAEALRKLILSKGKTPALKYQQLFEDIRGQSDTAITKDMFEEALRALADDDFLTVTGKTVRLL
Chain of Mcm2/4/6/7 complex (wild type) (P97311 whole entry, chain 3 of 4): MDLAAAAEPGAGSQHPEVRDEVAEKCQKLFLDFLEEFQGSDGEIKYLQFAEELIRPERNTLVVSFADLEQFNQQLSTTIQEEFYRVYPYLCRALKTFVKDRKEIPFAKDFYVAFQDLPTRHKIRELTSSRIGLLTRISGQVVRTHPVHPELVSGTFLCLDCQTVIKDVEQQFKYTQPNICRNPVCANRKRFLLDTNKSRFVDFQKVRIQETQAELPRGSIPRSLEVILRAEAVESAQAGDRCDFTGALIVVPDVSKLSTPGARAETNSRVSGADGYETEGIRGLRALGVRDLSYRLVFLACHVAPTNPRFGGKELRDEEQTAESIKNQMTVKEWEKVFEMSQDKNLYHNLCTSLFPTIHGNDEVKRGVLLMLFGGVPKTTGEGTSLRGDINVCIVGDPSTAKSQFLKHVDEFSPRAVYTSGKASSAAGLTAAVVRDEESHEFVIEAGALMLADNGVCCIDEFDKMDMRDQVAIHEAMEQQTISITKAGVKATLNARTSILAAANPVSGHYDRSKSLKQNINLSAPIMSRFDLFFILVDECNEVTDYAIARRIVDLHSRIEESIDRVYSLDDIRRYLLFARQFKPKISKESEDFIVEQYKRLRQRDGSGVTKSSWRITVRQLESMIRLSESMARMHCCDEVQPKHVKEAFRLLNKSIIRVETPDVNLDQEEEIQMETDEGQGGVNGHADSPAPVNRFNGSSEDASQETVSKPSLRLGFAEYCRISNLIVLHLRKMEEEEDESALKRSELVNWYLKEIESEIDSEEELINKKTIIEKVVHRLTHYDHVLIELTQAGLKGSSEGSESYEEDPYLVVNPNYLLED
Chain of Mcm2/4/6/7 complex (wild type) (Q61881 whole entry, chain 4 of 4): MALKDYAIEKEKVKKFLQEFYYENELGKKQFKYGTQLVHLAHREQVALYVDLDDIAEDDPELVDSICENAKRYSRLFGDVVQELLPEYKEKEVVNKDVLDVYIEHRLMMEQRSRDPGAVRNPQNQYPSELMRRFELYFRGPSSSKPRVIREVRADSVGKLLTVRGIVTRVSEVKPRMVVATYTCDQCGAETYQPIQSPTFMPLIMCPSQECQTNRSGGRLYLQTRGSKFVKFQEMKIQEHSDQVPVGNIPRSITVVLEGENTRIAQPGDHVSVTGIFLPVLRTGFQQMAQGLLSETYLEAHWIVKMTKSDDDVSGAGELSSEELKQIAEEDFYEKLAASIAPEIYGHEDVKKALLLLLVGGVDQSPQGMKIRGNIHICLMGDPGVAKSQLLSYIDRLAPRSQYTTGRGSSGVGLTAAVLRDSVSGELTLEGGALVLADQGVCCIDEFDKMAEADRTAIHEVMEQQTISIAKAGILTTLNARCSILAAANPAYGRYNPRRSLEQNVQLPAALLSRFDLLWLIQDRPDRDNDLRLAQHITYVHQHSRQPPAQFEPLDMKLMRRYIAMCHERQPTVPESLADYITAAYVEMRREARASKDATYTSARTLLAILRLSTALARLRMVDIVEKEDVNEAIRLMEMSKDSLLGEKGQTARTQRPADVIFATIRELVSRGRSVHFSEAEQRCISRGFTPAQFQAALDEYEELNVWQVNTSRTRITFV

B1: Mcm3/5 complex (wild type) (complex, mouse)
chain 1: MAGTVVLDDVELREAQRDYLDFLDDEEDQGIYQNKVRELISDNQYRLIVSVNDLRRKNEKRANRLLNNAFEELVAFQRALKDFVASIDATYAKQYEEFYIGLEGSFGSKHVSPRTLTSCFLSCVVCVEGIVTKCSLVRPKVVRSVHYCPATKKTIERRYSDLTTLVAFPSSSVYPTKDEENNPLETEYGLSVYKDHQTITIQEMPEKAPAGQLPRSVDVILDDDLVDKVKPGDRIQVVGTYRCLPGKKGCYTSGTFRTVLIACNVKQMSKDIQPAFSADDIAKIKKFSKTRSKDVFEQLARSLAPSIHGHDYVKKAILCLLLGGVERELENGSHIRGDINILLIGDPSVAKSQLLRYVLCTAPRAIPTTGRGSSGVGLTAAVTTDQETGERRLEAGAMVLADRGVVCIDEFDKMSDMDRTAIHEVMEQGRVTIAKAGIHARLNARCSVLAAANPVYGRYDQYKTPMENIGLQDSLLSRFDLLFIMLDQMDPEQDREISDHVLRMHQYRAPGEQDGDALPLGSSVDILATDDPDFTQDDQQDTRIYEKHDSLLHGTKKKKEKMVSAAFMKKYIHVAKIIKPTLTQESAAYIAEEYSRLRSQDSMSSDTARTSPVTARTLETLIRLATAHAKARMSKTVDLQDAEEAVELVQYAYFKKVLEKEKKRKKASEDESDLEDEEEKSQEDTEQKRKRRKTHAKDGESYDPYDFSEAETQMPQVHTPKTDDSQEKTDDSQETQDSQKVELSEPRLKAFKAALLEVFQEAHEQSVGMLHLTESINRNREEPFSSEEIQACLSRMQDDNQVMVSEGIVFLI
chain 2: MSGFDDPGIFYSDSFGGDPGAEEGQARKSQLQRRFKEFLRQYRVGTDRTGFTFKYRDELKRHYNLGEYWIEVEMEDLASFDEELADHLHKQPAEHLQLLEEAAKEVADEVTRPRPAGDELLQDIQVMLKSDASPSSIRILKSDMMSHLVKIPGIIISASAVRAKATRISIQCRSCHNTLTNIAMRPGLEGYALPRKCNMDQAGRPKCPLDPYFIMPDKCKCVDFQTLKLQELPDAVPHGEMPRHMQLYCDRYLCDKVVPGNRVTIMGIYSIKKFGLNPSKGRDRVGVGIRSSYIRVLGIQVDTDGSGRSFAGSVSPQEEEEFRRLAALPNIYELISKSISPSIFGGMDMKKAIACLLFGGSRKRLPDGLTRRGDINLLMLGDPGTAKSQLLKFVEKCSPIGVYTSGKGSSAAGLTASVIRDPSSRNFIMEGGAMVLADGGVVCIDEFDKMREDDRVAIHEAMEQQTISIAKAGITTTLNSRCSVLAAANSVFGRWDETKGEDNIDFMPTILSRFDMIFIVKDEHNEERDMMLAKHVMTLHVSALTQTQAVEGEIDLAKMKKFIAYCRARCGPRLSAEAAEKLKNRYIIMRSGARQHERDSDRRSSIPITVRQLEAIVRIAEALSKMKLQPFATEADVEEALRLFQVSTLDAALSGNLSGVEGFTTQEDQEMLSRIEKQLKRRFAIGSQVSEHSIVQDFTKQKYPEHAIRKVLQLMLRRGEIQHRMQRKVLYRLK
- binding result: binds
